Where no end group is shown, it is not given here.
What was measured:
[1] = molecular target: T1, Mut6T110S biotin labeled HCV core peptide (hepatitis C virus, biotin labeled (position not given)); experiment: capture EIA; Ab 15.625 ng/mL; bt-peptide 500 ng/mL
[2] = molecular target: T2, Mut1T110N biotin labeled HCV core peptide (hepatitis C virus, biotin labeled (position not given)); experiment: capture EIA; Ab 15.625 ng/mL; bt-peptide 500 ng/mL
T2 peptide: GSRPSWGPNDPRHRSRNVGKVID

[3] = molecular target: T3, 92-133 biotin labeled HCV core peptide (hepatitis C virus, UniProt Q9WMX2 92-133, chain 1: biotin label (bt-pep). Its position and any spacer are not visible in the passages shown.); experiment: capture EIA; Ab 15.625 ng/mL; bt-peptide 500 ng/mL
T3 construct: Only the label 92-133 is printed
T3 peptide: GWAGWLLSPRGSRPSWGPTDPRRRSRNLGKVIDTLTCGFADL
Description: (§1) Assay wells were coated with sheep anti-mouse IgG Fc specific antibody and incubated overnight. The coating solution was then removed; the wells blocked using BSA/tween in PBS and then washed with dH2O. […] Next, biotin labeled peptides (diluted to 500 ng/mL in block) were added, the plates incubated for 10 minutes while shaking at 700 rpm and then washed. Peroxidase conjugated streptavidin (diluted to 200 ng/mL in block) was then added to all assay wells, incubated for 20 minutes while shaking at 700 rpm and then washed. Finally, color was developed using OPD and signal quenched using 1N H₂SO₄. Signal was read at 492 nm.

[4] = molecular target: T4, C113WT biotin labeled HCV core peptide (hepatitis C virus, also: biotin labeled, position not given here); experiment: capture EIA; Ab 15.625 ng/mL; bt-peptide 500 ng/mL
T4 peptide: RGSRPSWGPTD

[5] = molecular target: T2, Mut1T110N biotin labeled HCV core …; experiment: capture EIA; Ab 15.6 ng/mL; bt-peptide 500 ng/mL (summary of Table 7)
Description: as §1

[6] = molecular target: T3, 92-133 biotin labeled HCV core peptide; experiment: as above
Description: as §1

[7] = molecular target: T1, Mut6T110S biotin labeled HCV core …; experiment: capture EIA; Ab 0.977 ng/mL; bt-peptide 500 ng/mL
Description: as §1

[8] = molecular target: T2, Mut1T110N biotin labeled HCV core …; experiment: capture EIA; Ab 0.977 ng/mL; bt-peptide 500 ng/mL
Description: as §1

[9] = molecular target: T5, WT1STHV biotin labeled HCV core peptide (hepatitis C virus, biotin labeled (position not given)); experiment: capture EIA; Ab 0.977 ng/mL; bt-peptide 500 ng/mL
T5 peptide: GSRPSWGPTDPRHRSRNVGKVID

[10] = molecular target: T6, C113T109N biotin labeled HCV core peptide (hepatitis C virus, also: biotin labeled, position not given here); experiment: capture EIA; Ab 0.977 ng/mL; bt-peptide 500 ng/mL
T6 construct: also called C113T110N
T6 peptide: RGSRPSWGPND

[11] = molecular target: T3, 92-133 biotin labeled HCV core peptide; experiment: capture EIA; Ab 0.977 ng/mL; bt-peptide 500 ng/mL
Description: as §1

[12] = molecular target: T4, C113WT biotin labeled HCV core peptide; experiment: capture EIA; Ab 0.977 ng/mL; bt-peptide 500 ng/mL
Description: as §1

[13] = molecular target: T6, C113T109N biotin labeled HCV core …; experiment: capture EIA with biotin peptide
[14] = molecular target: T4, C113WT biotin labeled HCV core peptide; experiment: capture EIA with biotin peptide
[15] = molecular target: T1, Mut6T110S biotin labeled HCV core …; experiment: capture EIA; Ab 62.5 ng/mL; bt-peptide 500 ng/mL
Description: as §1

[16] = molecular target: T2, Mut1T110N biotin labeled HCV core …; experiment: capture EIA; Ab 62.5 ng/mL; bt-peptide 500 ng/mL
Description: as §1

[17] = molecular target: T5, WT1STHV biotin labeled HCV core peptide; experiment: capture EIA; Ab 62.5 ng/mL; bt-peptide 500 ng/mL
Description: as §1

[18] = molecular target: T6, C113T109N biotin labeled HCV core …; experiment: capture EIA; Ab 62.5 ng/mL; bt-peptide 500 ng/mL
Description: as §1

[19] = molecular target: T3, 92-133 biotin labeled HCV core peptide; experiment: capture EIA; Ab 62.5 ng/mL; bt-peptide 500 ng/mL
Description: as §1

[20] = molecular target: T4, C113WT biotin labeled HCV core peptide; experiment: capture EIA; Ab 62.5 ng/mL; bt-peptide 500 ng/mL
Description: as §1

[21] = molecular target: T1, Mut6T110S biotin labeled HCV core …; experiment: capture EIA; Ab 1000 ng/mL; bt-peptide 500 ng/mL
Description: as §1

[22] = molecular target: T2, Mut1T110N biotin labeled HCV core …; experiment: capture EIA; Ab 1000 ng/mL; bt-peptide 500 ng/mL
Description: as §1

[23] = molecular target: T5, WT1STHV biotin labeled HCV core peptide; experiment: capture EIA; Ab 1000 ng/mL; bt-peptide 500 ng/mL
Description: as §1

[24] = molecular target: T6, C113T109N biotin labeled HCV core …; experiment: capture EIA; Ab 1000 ng/mL; bt-peptide 500 ng/mL
Description: as §1

[25] = molecular target: T3, 92-133 biotin labeled HCV core peptide; experiment: capture EIA; Ab 1000 ng/mL; bt-peptide 500 ng/mL
Description: as §1

[26] = molecular target: T4, C113WT biotin labeled HCV core peptide; experiment: capture EIA; Ab 1000 ng/mL; bt-peptide 500 ng/mL
Description: as §1

B1: Neo4 mouse monoclonal antibody (antibody, V domains shown)
VH: QIQLKESGPAVIKPSQSLSLTCIVSGFSITSSVYCWQWIRQPPGKGLEWMGRICYDGSVDYSPSITSRGTISRDTSLNKVFFQLSSVTNEDTAMYYCSRENHIDYYDTTYPSFDVWGAGTTVTVSS
VL: DIVLTQSPASLIVSLGQRATISCRASKSVNEYGYTYMHWYQQKPGLPPKLLIYLASNLDSGVPARFSGSGSGTDFTLNIHPVEEEDAATYYCQHSRELPYTFGGGTKLEIKR
notes: Mouse hybridoma antibody, isotype IgG1, purified with Protein G; also called HCV Neo4
signal at 492 nm [1]: 0.25 A492
signal at 492 nm [2]: 0.0771 A492
signal at 492 nm [3]: 0.806 A492
signal at 492 nm [4]: 0.0697 A492
signal at 492 nm [5]: 0.0771 A492
signal at 492 nm [6]: 0.806 A492
signal at 492 nm [7]: 0.0644 A492
signal at 492 nm [8]: 0.0619 A492
signal at 492 nm [9]: 0.22 A492
signal at 492 nm [10]: 0.0784 A492
signal at 492 nm [11]: 0.0978 A492
signal at 492 nm [12]: 0.0584 A492
binding result [13]: no binding
binding result [14]: no binding
signal at 492 nm [15]: 1.11 A492
signal at 492 nm [16]: 0.139 A492
signal at 492 nm [17]: 1.85 A492
signal at 492 nm [18]: 0.111 A492
signal at 492 nm [19]: 1.47 A492
signal at 492 nm [20]: 0.0626 A492
signal at 492 nm [21]: 1.17 A492
signal at 492 nm [22]: 0.0678 A492
signal at 492 nm [23]: 2 A492
signal at 492 nm [24]: 0.0591 A492
signal at 492 nm [25]: 1.41 A492
signal at 492 nm [26]: 0.222 A492
